# Laboratory results reported in the RNAGym collection of RNA variant scans (doi:10.7554/elife.90254).
# B1: OR4K15 (parent)
# chain: GUUAACGGUCAUAGGCCAUGGAAACUAGGAGCACCAUUUCGCUGCCAGUGAAGAAAUGAACAAAGAAAAUCUGGGCCAGGCAGGCAUCAAAAGAAAUAGUCUUGCGCUCAACCAGAAAGUCUGUAAUCAUUUUAAGGGUA
# Variants of: B1
# Assay: self-cleavage, relative activity (ratio to wild type); higher = more cleavage; in vitro, sequencing; the parent is a self-cleaving ribozyme
row,Variant,self-cleavage
1,U120C A135G,1.03
2,U120C A135U,0.85
3,A118G A140C,1.36
4,A114G A140G,0.26
5,A114G A140U,0.41
6,A117C,0.55
7,A117U,0.59
8,A117G,1.4
9,A118U U127A,0.97
10,G123A,1.06
11,G123U,1.59
12,G123C,1.16
13,A126G G136A,1.4
14,A111G U130C,0.01
15,A111G U130A,0.02
16,A118U A135C,0.3
17,A118G U122C,1.04
18,A114U,0.06
19,A114G,0.45
20,A114C,0.04
21,A110G U130C,0.09
22,A114C U131C,0.02
23,G115A U131C,0.04
24,A117U U127C,0.61

row,Variant,self-cleavage
1,U120C A140G,1.07
2,A117G U122A,2.35
3,A116G U133G,0.82
4,U124A A125G,0.91
5,U122C A129G,0.46
6,A111G A117G,0.01
7,C121A A140G,1.61
8,U122C A134G,1.75
9,A111G A126G,0.01
10,A111G A116G,0.01
11,A111G A116U,0.04
12,A116G A117C,0.1
13,A116G A117G,0.55
14,A111U A134G,0.03
15,A117U U124A,0.27
16,A110U A126G,1.05
17,A116U U124A,0.08
18,A125G G137U,0.98
19,A114U G137U,0.3
20,U124C A125U,1.37
21,A117G C128U,2.12
22,A117G A129U,1.01
23,A111G A118U,0
24,A111G A118G,0.01

row,Variant,self-cleavage
1,G115A A116G,0.23
2,A111G C128A,0.01
3,A114G A117U,0.4
4,A110U U132A,1.8
5,A110U U132C,0.71
6,A110G U120C,0.06
7,C121A U127C,0.2
8,U124C G138C,1.31
9,A114G A116G,0.1
10,A116G A129G,0.41
11,C121U U130C,0.92
12,G115U A129U,0.03
13,A118G U120C,0.44
14,U120C U124C,0.34
15,U120C A126G,0.27
16,A116U A129G,0.13
17,A116G A134U,0.2
18,A114G U127C,0.11
19,A110G U133C,0.25
20,U124C U132G,0.76
21,U122A U131G,0.73
22,U122A U131C,0.34
23,A111G C121A,0.03
24,G115U U130C,0.07

row,Variant,self-cleavage
1,U124C G137C,0.78
2,A110G,0.13
3,A110U,1.34
4,A110C,0.31
5,A114C A129G,0.01
6,A116G A140U,0.92
7,A116G A140G,0.97
8,A118G U131C,0.63
9,A111G,0.02
10,A111C,0.01
11,A111U,0.08
12,U124A U131C,0.36
13,C113U A140G,0.12
14,G119U U132C,1.41
15,A117U U122C,1.24
16,A111G U131C,0.01
17,A116G A126G,0.12
18,A117G U120A,2.78
19,A118G A134G,0.71
20,A116G U122A,0.5
21,U122C A140C,1.25
22,C113U U131C,0
23,U122A A126G,0.67
24,U120C U132A,1.42

row,Variant,self-cleavage
1,U120C U132C,0.85
2,A117G U133C,1.85
3,U120A U130C,1.78
4,A110G U127A,0.15
5,A111U A126G,0.06
6,A114U A140G,0.08
7,A117U U132C,0.88
8,C121U A135G,2.01
9,U122A U127C,0.98
10,G115A U124C,0.05
11,A111G A114G,0.02
12,A111G A114U,0
13,A111G A114C,0
14,U124C U139C,0.91
15,A110U U127C,0.44
16,A125U U130C,1.66
17,A110G G123A,0.29
18,A116U A117G,0.15
19,U122A U124A,0.14
20,A118G U132C,0.18
21,A118G U132A,1.11
22,A116G U131A,0.25
23,A125C,0.46
24,A125U,1.81

row,Variant,self-cleavage
1,A125G,0.56
2,U122C A126G,0.76
3,A111G U124A,0.02
4,U122A U130C,0.8
5,C113U U122C,0.08
6,A118U U131C,0.37
7,A116U G138U,0.03
8,G115U,0.23
9,G115C,0.14
10,G115A,0.12
11,A117G A135G,2.66
12,A118G C128U,0.61
13,A118C U139A,1.24
14,A114G A118G,0.36
15,A117U A129G,0.47
16,C112A U127C,0.03
17,A118U U120C,0.08
18,A114G U139C,0.32
19,U122C U127A,2.22
20,A116G U130C,0.25
21,C112U A117G,0.01
22,C113A A116G,0.01
23,C113U G136A,0.18
24,A116G G136U,0.74

row,Variant,self-cleavage
1,A116G G136A,1.65
2,C121A A126G,1.78
3,A117U U120C,0.83
4,A125G A129G,0.41
5,C121A,2.65
6,C121U,1.65
7,U124G A129C,0.33
8,U120G U130C,1.46
9,A118U U122C,0.89
10,A114G G115U,0.02
11,U120A A129U,0.57
12,A111C U131C,0
13,A114U U127A,0.03
14,A114U U122A,0.04
15,A114U U122C,0.04
16,C112U U122C,0.01
17,A118U U132C,0.4
18,U124C A129U,0.94
19,U124C A129G,0.8
20,C112U U132C,0.01
21,A125G U131C,0.2
22,U122A A125G,0.55
23,A116G U124A,0.69
